Results from US20220177587A1 (Alpine Immune Sciences, Inc., published 2022).
Residue numbers refer to the chain shown, from its start. Numbers in names are those of the source. Blank lines part the entries; values can stand above or below the binder they belong to.

Experiments:
human CTLA-4 = human CTLA-4 (human, UniProt P16410); assay: flow cytometry, CHO/CTLA4 cells; MFI over CD80 WT IgV-Fc
human PD-L1 = human PD-L1 (human, UniProt Q9NZQ7); assay: flow cytometry, CHO/PD-L1 cells; MFI over CD80 WT IgV-Fc
human CD28 [1] = biological target: human CD28 (human, UniProt P10747); assay: flow cytometry, Jurkat cells (CD28); MFI over CD80 WT IgV-Fc
human CD28 [2] = biological target: human CD28 (human, UniProt P10747); assay: cell-based or functional assay

CD28 costimulation EC50, Jurkat/IL-2 luciferase reporter; SIP 2 (Supernatant) from Donor 1 Pan T-cells (human CD28 [2]): 0.282 nM
CD28 costimulation EC50, Jurkat/IL-2 luciferase reporter; SIP 2 (Supernatant) from Donor 2 Pan T-cells (human CD28 [2]): 0.75 nM
CD28 costimulation EC50, Jurkat/IL-2 luciferase reporter; SIP 2 (Supernatant) from Jurkat cells (human CD28 [2]): 0.75 nM
B3: SIP 2: Variant CD80 IgV-GSG4S-Inert Fc (E35D, D46V, M47L, and V68M) (Fc fusion)
chain: VIHVTKEVKEVATLSCGHNVSVEELAQTRIYWQKDKKMVLTMMSGVLNIWPEYKNRTIFDITNNLSIMILALRPSDEGTYECVVLKYEKDAFKREHLAEVTLSVKADGSGGGGSEPKSSDKTHTCPPCPAPEAEGAPSVFLFPPKPKDTLMISRTPEVTCVVVDVSHEDPEVKFNWYVDGVEVHNAKTKPREEQYNSTYRVVSVLTVLHQDWLNGKEYKCKVSNKALPAPIEKTISKAKGQPREPQVYTLPPSRDELTKNQVSLTCLVKGFYPSDIAVEWESNGQPENNYKTTPPVLDSDGSFFLYSKLTVDKSRWQQGNVFSCSVMHEALHNHYTQKSLSLSPG

CD28 costimulation EC50, Jurkat/IL-2 luciferase reporter; SIP 3 (Supernatant) from Donor 1 Pan T-cells (human CD28 [2]): 0.294 nM
CD28 costimulation EC50, Jurkat/IL-2 luciferase reporter; SIP 3 (Supernatant) from Donor 2 Pan T-cells (human CD28 [2]): 0.961 nM
CD28 costimulation EC50, Jurkat/IL-2 luciferase reporter; SIP 3 (Supernatant) from Jurkat cells (human CD28 [2]): 0.961 nM
B4: SIP 3: Variant CD80 IgV-GSG4S-Inert Fc (H18Y, E35D, M47V, V68M, and A71G) (Fc fusion)
chain: B3 chain with H18Y, V46D, L47V, A71G

CD28 costimulation EC50, Jurkat/IL-2 luciferase reporter; SIP 4 (Supernatant) from Donor 1 Pan T-cells (human CD28 [2]): 0.153 nM
CD28 costimulation EC50, Jurkat/IL-2 luciferase reporter; SIP 4 (Supernatant) from Donor 2 Pan T-cells (human CD28 [2]): 0.221 nM
CD28 costimulation EC50, Jurkat/IL-2 luciferase reporter; SIP 4 (Supernatant) from Jurkat cells (human CD28 [2]): 0.221 nM
B5: SIP 4: Variant CD80 IgV-GSG4S-Inert Fc (H18Y, A26P, E35D, M47I, V68M, and A71G) (Fc fusion)
chain: B3 chain with H18Y, A26P, V46D, L47I, A71G

More lines, now with the values behind:

B1: CD80 E35D/M47V/N48K/V68M/K89N IgV-Fc, delta linker (Fc fusion)
chain: VIHVTKEVKEVATLSCGHNVSVEELAQTRIYWQKDKKMVLTMMSGDVKIWPEYKNRTIFDITNNLSIMILALRPSDEGTYECVVLKYENDAFKREHLAEVTLSVKTHTCPPCPAPEAEGAPSVFLFPPKPKDTLMISRTPEVTCVVVDVSHEDPEVKFNWYVDGVEVHNAKTKPREEQYNSTYRVVSVLTVLHQDWLNGKEYKCKVSNKALPAPIEKTISKAKGQPREPQVYTLPPSREEMTKNQVSLTCLVKGFYPSDIAVEWESNGQPENNYKTTPPVLDSDGSFFLYSKLTVDKSRWQQGNVFSCSVMHEALHNHYTQKSLSLSPG
Fold change to WT CD80 (human CTLA-4): 2.6 fold
Fold change to WT CD80 (human PD-L1): 439 fold
Fold change to WT CD80 (human CD28 [1]): 83.7 fold

B2: CD80 E35D/D46V/M47L/V68M/L85Q/E88D IgV-Fc, delta linker (Fc fusion)
chain: B1 chain with D46V, V47L, K48N, L85Q, E88D, N89K
Fold change to WT CD80 (human CTLA-4): 10.2 fold
Fold change to WT CD80 (human PD-L1): 484 fold
Fold change to WT CD80 (human CD28 [1]): 74.7 fold
